Source: patent US20250027068

Target: pooled human IgG (human IgG1, 2, 3 and 4)

Protein	Enzyme Activity Endpoint Assay: Fab′2	Enzyme Activity Endpoint Assay: Fc	Enzyme Activity Endpoint Assay: IgG	Enzyme Activity Endpoint Assay: scIgG	Enzyme Activity Endpoint Assay (purified): Fab′2	Enzyme Activity Endpoint Assay (purified): Fc	Enzyme Activity Endpoint Assay (purified): IgG	Enzyme Activity Endpoint Assay (purified): scIgG
PRT-465 (protein) MVTSVWTKGVTPPANFTQGEDVFHAPYVANQGWYDITKTFNGKDDLLCGAATAGNMLHWWFDQNKDQIERYLKEHPEKQKINFNGEQMFDVKEAIDTKDSQTDSKLFEYFKEKAFPYLSTKHLGVFPDHVLDMFINGYRLSLTNHGPTPVKEGSKDPRGGIFDAVFTRGDQSKLLTSRHDLKNKTLKEISDLIKQELTEGKALGLSHTYANVRINHVINLWGADFDSEGNLKAIYVTDSDSNASIGMKKYFVGVNSAGKVAISAKEIKEDNIGAQVLGLFTLSTGQDIWNQTNLEHHHHHH	504 ng/µL	296 ng/µL	111 ng/µL	501 ng/µL	–	–	–	–
PRT-451 (protein) MVTSVWTKGVTPPANFRKIVDGNIAYYHAPYKANQGWYDITKTFNGKDDLLCGAATAGNMLHWWFDQNKDQIEAYLKEHPEKQKINFNGEQMFDVKEAIDTKDDQTNSKLFEYFKEKAFPYLSTKHLGVFPDHVLDMFINGYRLSLTNHGPTPVKEGSKDPRGGIFDAVFTRGDQSKLLTSRHDLKNKTLKEISDLIKQELTEGKALALSHTYANVRINHVINLWGADFDSNGNLEAIYVTDSDSNASIGMKKYFVGVNSAGKVAISAKEIEDDNIGAQVLGLFTLSTGQDIWNQTNLEHHHHHH	1250 ng/µL	324 ng/µL	0 ng/µL	0 ng/µL	–	–	–	–
PRT-449 (protein) MVTSVWTKGVTPPTDFRKIVDGNIAYYHAPYKAGQGWYDITKTFNGKDDLLCGAATAGNMLHWWFDQNKDQIEAYLKEHPEKQKINFNGEQMFDVKEAIDTKDDQTNSKLFEYFKEKAFPYLSTKHLGVFPDHVLDMFINGYRLSLTNHGPTPVKEGSKDPRGGIFDAVFTRGDQSKLLTSRHDFKEKTLKEISDLIKQELTEGKALALSHTYANVRINHVINLWGADFDSNGNLEAIYVTDSDSNASIGMKKYFVGVNSAGKVAISAKEIEDDNIGAQVLGLFTLSTGQDIWNQTNLEHHHHHH	–	–	–	–	1100 ng/µL	365 ng/µL	0 ng/µL	0 ng/µL
PRT-463 (protein) MVTSVWTKGVTPPANFRKIVDGNIAYYHAPYVANQGWYDITKTFNGKDDLLCGAATAGNMLHWWFDQNKDQIERYLKEHPEKQKINFNGEQMFDVKEAIDTKDSQTDSKLFEYFKEKAFPYLSTKHLGVFPDHVLDMFINGYRLSLTNHGPTPVKEGSKDPRGGIFDAVFTRGDQSKLLTSRHDLKNKTLKEISDLIKQELTEGKALGLSHTYANVRINHVINLWGADFDSEGNLKAIYVTDSDSNASIGMKKYFVGVNSAGKVAISAKEIKEDNIGAQVLGLFTLSTGQDIWNQTNLEHHHHHH	821 ng/µL	259 ng/µL	0 ng/µL	0 ng/µL	–	–	–	–
PRT-474 (protein) MVTSVWTKGVTPPTDFRKIVDGNIAYYHAPYKAGQGWYDITKAFDGGDDLLCGAATAGNMLHWWFDQNKEQIENYLKKHPEKQKINFNGEQMFDVKEAIDTKDSQTNSELFNYFKEKAFPYLSTKHLGVFPDHVIDMFINGYRLSLTNHGPTPVKRGSKDPRGGIFDAVFTRGDQSKLLTNRHDLKNKTLKEISDLIKQELTEGKALGISHTYANVRINHVINLWGADFDAEGNLEAIYVTDSDSNASIGMKKYFVGVNSNGKVAISAKEIEEDNIGAQVLGLFTLSTGQDIWNQTNLEHHHHHH	462 ng/µL	156 ng/µL	0 ng/µL	229 ng/µL	–	–	–	–
PRT-475 (protein) MVTSVWTKGVTPPTNFRKIVDGNIAYYHAPYVANQGWYDITKTFNGKDDLLCGAATAGNMLHWWFDQNKEQIENYLKKHPEKQKINFNGEQMFDVKEAIDTKDSQLDSKLFEYFKEKAFPYLSTKHLGVFPDHVIDMFINGYRLSLTNHGPTPVKRGSKDPRGGIFDAVFTRGDQSKLLTNRHDLKNKTLKEISDLIKQELTEGKALGISHTYANVRINHVINLWGADFDAEGNLEAIYVTDSDSNASIGMKKYFVGVNSNGKVAISAKEIEEDNIGAQVLGLFTLSTGQDIWNQTNLEHHHHHH	–	–	–	–	1150 ng/µL	413 ng/µL	0 ng/µL	0 ng/µL
PRT-490 (protein) MVTSVWTKGVTPPTDFIYGEDVLHAPYKAGQGWYDITKTFNGKDNLLCGAATAGNMLHWWFDQNKEQIENYLKKHPEKQKIIFNNQELFDLKAAIDTKDSQLDSKLFEYFKEKAFPYLSTKHLGVFPDHVIDMFINGYRLSLTNHGPTPVKRGSKDKRGGIFDAVFTRGVQSKLLTNRHDFKEKTLKEISDLIKQELTEGKALGISHTYANVRINHVINLWGADFDAEGNLEAIYVTDSDTNASIGMKKYFVGVNSNGKVAISAKEIEEDNIGAQVLGLFTLSTGQDIWNQTNLEHHHHHH	–	–	–	–	73 ng/µL	243 ng/µL	166 ng/µL	875 ng/µL
PRT-509 (protein) MITSVWTKGVTPPTDFRKIVDGNIAYYHAPYKAGQGWYDITKTFNGKDDLLCGAATAGNMLHWWFDQNKEEIEAYLKKHPEKQKIMFGDQELLDVRKVINTKDSQTNSALFNYFKDKAFPNLSARRLGVMPDLVLDMFINGYYLNVYKTQTTDVNRTYQTKDRRGGIFDAVFTRGDQSKLLTERHDFKEKTLKEISDLIKQELTEGKALGLSHTYANVRINHVINLWGADFDSNGNLEAIYVTDSDSNASIGMKKYFVGVNSAGKVAISAKEIKEDNIGAQVLGLFTLSTGQDIWNQTNLEHHHHHH	–	–	–	–	21 ng/µL	26 ng/µL	0 ng/µL	0 ng/µL
PRT-457 (protein) MVTSVWTKGVTPPTDFIKGEDVFHAPYKAGQGWYDITKAFDGGDDLLCGAATAGNMLHWWFDQNKDQIEAYLKEHPEKQKINFNGEQMFDVKEAIDTKDDQTNSELFNYFKEKAFPYLSTKHLGVFPDHVLDMFINGYRLSLTNHGPTPVKRQEKDPRGGIFDAVFGRGDQTKLLTSRHDLKNKTLKEISDLIKQELTEGKALALSHTYANVRINHVINLWGADFDSNGNLEAIYVTDSDSNASIGMKKYFVGVNSAGKVAISAKEIEDDNIGAQVLGLFTLSTGQKIWNKTNLEHHHHHH	–	–	–	–	450 ng/µL	379 ng/µL	138 ng/µL	337 ng/µL
PRT-469 (protein) MVTSVWTKGVTPPTDFIKGEDVFHAPYKAGQGWYDITKAFDGGDDLLCGAATAGNMLHWWFDQNKDQIERYLKEHPEKQKINFNGEQMFDVKEAIDTKDSQTNSELFNYFKEKAFPYLSTKHLGVFPDHVLDMFINGYRLSLTNHGPTPVKRQEKDPRGGIFDAVFGRGDQTKLLTSRHDLKNKTLKEISDLIKQELTEGKALGLSHTYANVRINHVINLWGADFDSEGNLKAIYVTDSDSNASIGMKKYFVGVNSAGKVAISAKEIKEDNIGAQVLGLFTLSTGQKIWNKTNLEHHHHHH	–	–	–	–	41 ng/µL	139 ng/µL	50 ng/µL	248 ng/µL
PRT-481 (protein) MVTSVWTKGVTPPTDFIYGEDVLHAPYKAGQGWYDITKAFDGGDDLLCGAATAGNMLHWWFDQNKEQIENYLKKHPEKQKINFNGEQMFDVKEAIDTKDSQTNSELFNYFKEKAFPYLSTKHLGVFPDHVIDMFINGYRLSLTNHGPTPVKRQEKDPRGGIFDAVFGRGDQTKLLTNRHDLKNKTLKEISDLIKQELTEGKALGISHTYANVRINHVINLWGADFDAEGNLEAIYVTDSDSNASIGMKKYFVGVNSNGKVAISAKEIEEDNIGAQVLGLFTLSTGQKIWNKTNLEHHHHHH	1380 ng/µL	429 ng/µL	65 ng/µL	0 ng/µL	–	–	–	–
PRT-516 (protein) MITSVWTKGVTPPTDFIKGEDVFHAPYKAGQGWYDITKAFDGGDDLLCGAATAGNMLHWWFDQNKEEIEAYLKKHPEKQKIMFGDQELLDVRKVINTKDSQTNSALFNYFKDKAFPNLSARRLGVMPDLVLDMFINGYYLNVYKTQTTDVNRTYQTKDRRGGIFDAVFTRGDQSKLLTERHDLKNKTLNEISQLIKQELTEGKALGLSHTYANVRINHVINLWGADFDAEGNLEAIYVTDSDSNASIGMKKYFVGVNSAGKVAISAKEIKEDNIGAQVLGLFTLSTGQDIWNQTNLEHHHHHH	–	–	–	–	16 ng/µL	23 ng/µL	0 ng/µL	0 ng/µL
PRT-495 (protein) MVTSVWTKGVTPPTDFIKGEDVFHAPYKAGQGWYDITKAFDGGDDLLCGAATAGNMLHWWFDQNKEYIEAYLKKHPEKQKIMFGDQELLDVRKAINTKGSQKNSELFNYFRDKAFPNLSARRLGVMPDLVLDMFINGYYLNVTKTQTTDVNRTYQEKDKRGGIFDAVFTRGDQSKLLTSRHDFKEKGLKEISDLIKQELTEGKALGLSHTYANVRINHVINLWGADFDSDGNLKAIYVTDSDSNASIGMKKYFVGVNSAGKVAISAKEIKEDNIGAQVLGLFTLSTGQDIWNQTNLEHHHHHH	–	–	–	–	0 ng/µL	37 ng/µL	0 ng/µL	0 ng/µL
PRT-461 (protein) MVTSVWTKGVTPPTDFRKIVDGNIAYYHAPYKAGQGWYDITKTFNGKDDLLCGAATAGNMLHWWFDQNKDQIERYLKEHPEKQKINFNGEQMFDVKEAIDTKDSQTDSKLFEYFKEKAFPYLSTKHLGVFPDHVLDMFINGYRLSLTNHGPTPVKEGSKDPRGGIFDAVFTRGDQSKLLTSRHDFKEKTLKEISDLIKQELTEGKALGLSHTYANVRINHVINLWGADFDSEGNLKAIYVTDSDSNASIGMKKYFVGVNSAGKVAISAKEIKEDNIGAQVLGLFTLSTGQDIWNQTNLEHHHHHH	–	–	–	–	399 ng/µL	309 ng/µL	154 ng/µL	298 ng/µL
